Experimental data as given in article PMC12216690, “MORC2 is a phosphorylation-dependent DNA compaction machine” (Nature Communications, 2024).

Columns and labels:
MORC2 WT [1] = molecular target: T1, MORC2 WT (Homo sapiens, UniProt Q9Y6X9 1-1032); experiment: competition; pre-bound; 90 bp competitor still taken up; EMSA: 20 mM Tris pH 7.4, 75 mM NaCl, 5% glycerol, 0.005% NP-40, 0.5 mM MgCl2, RT 30 min; SPR: 10 mM HEPES pH 7.4, 300 mM NaCl, 3 mM EDTA, 0.05% Tween-20, 20 C; details: protein: recombinant; tags: C-terminal 3C site-twin StrepII; chain copies: 2; linear
T1 sequence: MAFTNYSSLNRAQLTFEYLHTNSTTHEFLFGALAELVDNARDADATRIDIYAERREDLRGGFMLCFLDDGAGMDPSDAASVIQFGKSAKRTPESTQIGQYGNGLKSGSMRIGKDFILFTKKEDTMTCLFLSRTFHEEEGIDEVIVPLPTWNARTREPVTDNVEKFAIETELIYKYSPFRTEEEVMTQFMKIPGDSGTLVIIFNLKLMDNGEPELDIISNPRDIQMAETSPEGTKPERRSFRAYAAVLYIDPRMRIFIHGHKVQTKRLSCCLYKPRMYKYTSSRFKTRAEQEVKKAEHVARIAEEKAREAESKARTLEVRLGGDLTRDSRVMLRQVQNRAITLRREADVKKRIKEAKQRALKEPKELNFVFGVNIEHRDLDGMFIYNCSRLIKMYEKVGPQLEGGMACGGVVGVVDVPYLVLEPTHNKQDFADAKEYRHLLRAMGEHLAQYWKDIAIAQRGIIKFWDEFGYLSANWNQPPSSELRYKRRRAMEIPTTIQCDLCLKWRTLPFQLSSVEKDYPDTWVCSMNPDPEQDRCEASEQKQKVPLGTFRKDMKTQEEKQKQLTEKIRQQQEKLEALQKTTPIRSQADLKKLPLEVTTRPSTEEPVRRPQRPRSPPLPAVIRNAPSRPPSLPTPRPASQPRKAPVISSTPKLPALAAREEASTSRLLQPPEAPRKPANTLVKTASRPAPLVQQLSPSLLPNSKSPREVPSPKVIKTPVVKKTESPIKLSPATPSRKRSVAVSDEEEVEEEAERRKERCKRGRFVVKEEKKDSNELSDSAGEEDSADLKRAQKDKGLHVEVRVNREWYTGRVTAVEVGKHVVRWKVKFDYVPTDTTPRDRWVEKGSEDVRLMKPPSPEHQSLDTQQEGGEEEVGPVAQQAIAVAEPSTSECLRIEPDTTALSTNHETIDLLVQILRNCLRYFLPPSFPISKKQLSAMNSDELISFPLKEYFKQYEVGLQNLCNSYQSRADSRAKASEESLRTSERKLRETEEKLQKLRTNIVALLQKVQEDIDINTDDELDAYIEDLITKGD

MORC2 ATPase = molecular target: T2, MORC2 ATPase (Homo sapiens, UniProt Q9Y6X9 1-603); experiment: competition; pre-bound; more competitor uptake than WT; EMSA: 20 mM Tris pH 7.4, 75 mM NaCl, 5% glycerol, 0.005% NP-40, 0.5 mM MgCl2, RT 30 min; SPR: 10 mM HEPES pH 7.4, 300 mM NaCl, 3 mM EDTA, 0.05% Tween-20, 20 C; details: protein: recombinant; tags: N-terminal 6xHis; closed circle
T2 sequence: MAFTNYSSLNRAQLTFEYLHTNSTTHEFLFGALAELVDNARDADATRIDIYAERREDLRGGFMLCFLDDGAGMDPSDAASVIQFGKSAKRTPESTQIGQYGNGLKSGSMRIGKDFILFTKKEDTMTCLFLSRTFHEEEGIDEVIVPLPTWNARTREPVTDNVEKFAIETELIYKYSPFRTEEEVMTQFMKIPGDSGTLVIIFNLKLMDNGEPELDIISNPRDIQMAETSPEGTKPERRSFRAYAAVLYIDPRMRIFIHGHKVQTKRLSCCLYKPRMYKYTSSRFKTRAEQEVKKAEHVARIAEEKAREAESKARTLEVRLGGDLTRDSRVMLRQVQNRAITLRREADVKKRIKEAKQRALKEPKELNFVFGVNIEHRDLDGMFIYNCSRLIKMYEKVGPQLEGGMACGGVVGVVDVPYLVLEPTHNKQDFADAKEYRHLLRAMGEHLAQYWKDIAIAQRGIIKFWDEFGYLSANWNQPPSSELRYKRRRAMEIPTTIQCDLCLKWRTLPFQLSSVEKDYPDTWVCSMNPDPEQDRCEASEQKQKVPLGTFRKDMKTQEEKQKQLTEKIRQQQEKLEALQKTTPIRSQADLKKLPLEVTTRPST

MORC2 WT [2] = molecular target: T1, MORC2 WT; experiment: competition; pre-bound; resists 90 bp competitor (clamp); EMSA: 20 mM Tris pH 7.4, 75 mM NaCl, 5% glycerol, 0.005% NP-40, 0.5 mM MgCl2, RT 30 min; SPR: 10 mM HEPES pH 7.4, 300 mM NaCl, 3 mM EDTA, 0.05% Tween-20, 20 C; details: protein: recombinant; tags: C-terminal 3C site-twin StrepII; chain copies: 2; closed circle
MORC2 dephosphorylated = molecular target: T3, MORC2 dephosphorylated (Homo sapiens, UniProt Q9Y6X9 1-1032); experiment: SPR; lambda-PPase treated; EMSA: 20 mM Tris pH 7.4, 75 mM NaCl, 5% glycerol, 0.005% NP-40, 0.5 mM MgCl2, RT 30 min; SPR: 10 mM HEPES pH 7.4, 300 mM NaCl, 3 mM EDTA, 0.05% Tween-20, 20 C; details: protein: recombinant; tags: C-terminal 3C site-twin StrepII; chain copies: 2; label: 5'-biotin on strand 1; blunt
T3 sequence: T1 sequence

MORC2 WT [3] = molecular target: T1, MORC2 WT; experiment: SPR; EMSA: 20 mM Tris pH 7.4, 75 mM NaCl, 5% glycerol, 0.005% NP-40, 0.5 mM MgCl2, RT 30 min; SPR: 10 mM HEPES pH 7.4, 300 mM NaCl, 3 mM EDTA, 0.05% Tween-20, 20 C; details: protein: recombinant; tags: C-terminal 3C site-twin StrepII; chain copies: 2; label: 5'-biotin on strand 1; blunt
MORC2 GHKL+CC1 = molecular target: T4, MORC2 GHKL+CC1 (Homo sapiens, UniProt Q9Y6X9 1-495); experiment: EMSA; negligible binding; EMSA: 20 mM Tris pH 7.4, 75 mM NaCl, 5% glycerol, 0.005% NP-40, 0.5 mM MgCl2, RT 30 min; SPR: 10 mM HEPES pH 7.4, 300 mM NaCl, 3 mM EDTA, 0.05% Tween-20, 20 C; details: protein: recombinant; tags: C-terminal 3C site-twin StrepII; label: 5' 6FAM, IRDye680 or IRDye800 on XOm1; blunt
T4 sequence: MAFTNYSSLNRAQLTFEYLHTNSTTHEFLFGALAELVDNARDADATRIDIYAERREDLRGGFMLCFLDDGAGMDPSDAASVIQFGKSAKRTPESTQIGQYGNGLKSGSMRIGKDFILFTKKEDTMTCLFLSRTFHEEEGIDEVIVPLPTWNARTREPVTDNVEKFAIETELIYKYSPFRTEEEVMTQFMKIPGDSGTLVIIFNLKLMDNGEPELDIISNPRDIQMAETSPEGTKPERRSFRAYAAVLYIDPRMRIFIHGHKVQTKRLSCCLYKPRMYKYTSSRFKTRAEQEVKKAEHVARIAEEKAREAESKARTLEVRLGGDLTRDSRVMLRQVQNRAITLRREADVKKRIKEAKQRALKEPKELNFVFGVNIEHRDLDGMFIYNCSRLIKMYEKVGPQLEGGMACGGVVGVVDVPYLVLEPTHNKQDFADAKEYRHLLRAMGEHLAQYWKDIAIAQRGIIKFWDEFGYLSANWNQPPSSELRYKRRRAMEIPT

MORC2 CW = molecular target: T5, MORC2 CW (Homo sapiens, UniProt Q9Y6X9 496-603); experiment: as above; details: protein: recombinant; tags: C-terminal 3C site-twin StrepII; label: 5' 6FAM, IRDye680 or IRDye800 on XOm1; blunt
T5 sequence: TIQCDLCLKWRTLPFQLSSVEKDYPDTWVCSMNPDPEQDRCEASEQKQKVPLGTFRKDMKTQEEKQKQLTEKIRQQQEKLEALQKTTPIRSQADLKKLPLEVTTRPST

MORC2 CC3 = molecular target: T6, MORC2 CC3 (Homo sapiens, UniProt Q9Y6X9 738-776); experiment: EMSA; DNA length inferred; EMSA: 20 mM Tris pH 7.4, 75 mM NaCl, 5% glycerol, 0.005% NP-40, 0.5 mM MgCl2, RT 30 min; SPR: 10 mM HEPES pH 7.4, 300 mM NaCl, 3 mM EDTA, 0.05% Tween-20, 20 C; details: protein: recombinant; tags: C-terminal 3C site-twin StrepII; label: 5' 6FAM, IRDye680 or IRDye800 on XOm1; blunt
T6 chain: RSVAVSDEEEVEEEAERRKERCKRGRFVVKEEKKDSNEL

MORC2 CC2 = molecular target: T7, MORC2 CC2 (Homo sapiens, UniProt Q9Y6X9 544-587); experiment: as above; details: protein: recombinant; tags: C-terminal 3C site-twin StrepII; label: 5' 6FAM, IRDye680 or IRDye800 on XOm1; blunt
T7 chain: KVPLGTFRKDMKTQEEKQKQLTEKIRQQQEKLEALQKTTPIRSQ

B1: 101 bp linear dsDNA (dsDNA)
DNA 1: CGGTCGTTTAGCATACTAATCTGAGAGTCCGACGGTCGTCAGTCAGTCATGACTTCACAGAGGAAGGGCCAGTATCCTGTCCAAACTTGATGCTCGAATTC
DNA 2: GAATTCGAGCATCAAGTTTGGACAGGATACTGGCCCTTCCTCTGTGAAGTCATGACTGACTGACGACCGTCGGACTCTCAGATTAGTATGCTAAACGACCG
B1: binds (MORC2 WT [1]).

B2: 101 bp circular dsDNA (dsDNA)
DNA 1: B1 DNA 1
DNA 2: B1 DNA 2
B2: binds (MORC2 ATPase); binds (MORC2 WT [2]).

B3: 60 bp dsDNA (biotin, SPR) (dsDNA)
DNA 1: ACGCTGCCGAATTCTACCAGTGCCTTGCTAGGACATCTTTGCCCACCTGCAGGTTCACCC
DNA 2: GGGTGAACCTGCAGGTGGGCAAAGATGTCCTAGCAAGGCACTGGTAGAATTCGGCAGCGT
B3 showed a Kd (MORC2 dephosphorylated) of 15.3 ± 9.1 nM and a Kd (MORC2 WT [3]) of 26.3 ± 11.4 nM.

B4: 60 bp dsDNA (XOm1/XOm1.comp) (dsDNA)
DNA 1: B3 DNA 1
DNA 2: B3 DNA 2
B4: no binding (MORC2 GHKL+CC1); no binding (MORC2 CW); no binding (MORC2 CC3). B4: binds (MORC2 CC2).
